Measured values taken from US20140004128A1.

Target: recombinant human IL-18 (human) (UniProt Q14116)
Experiment: free IL-18 ECL immunoassay: recombinant human IL-18 captured by plate-coated Antibody 12GL, biotinylated detection antibody; rhIL-18BP titrated as competitor of the capture

Substance: recombinant IL-18BP (from UniProt O95998 31-194)
- IC50 (read off the curve): 3 ng/mL
